Results from patent US20130315910A1 (Xencor, published 2013).

T1: mFcγRIV
T1 construct: also called mouse FcγRIV; not shown: C-terminal His and GST tags (named only on our card)
T1 chain: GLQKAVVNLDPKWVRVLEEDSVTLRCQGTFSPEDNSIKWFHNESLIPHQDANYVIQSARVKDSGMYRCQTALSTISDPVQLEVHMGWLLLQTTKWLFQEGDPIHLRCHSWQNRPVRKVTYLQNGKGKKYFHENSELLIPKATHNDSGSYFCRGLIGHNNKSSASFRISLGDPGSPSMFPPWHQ

T2: cynoFcγRIIb (Macaca fascicularis, UniProt A0A140HDP4)
T2 construct: extracellular region, C-terminal His- and GST-tag; also called cynomolgus monkey FcγRIIb
T2 sequence (receptor extracellular region): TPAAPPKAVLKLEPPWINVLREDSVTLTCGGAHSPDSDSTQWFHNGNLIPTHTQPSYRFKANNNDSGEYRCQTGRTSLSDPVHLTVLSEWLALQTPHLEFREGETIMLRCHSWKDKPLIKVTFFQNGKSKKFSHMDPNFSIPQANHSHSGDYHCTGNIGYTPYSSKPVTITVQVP

T3: mFcγRIIb (Mus musculus, UniProt P08101)
T3 construct: extracellular region, C-terminal His- and GST-tag; also called mouse FcγRII
T3 sequence (receptor extracellular region, looked up): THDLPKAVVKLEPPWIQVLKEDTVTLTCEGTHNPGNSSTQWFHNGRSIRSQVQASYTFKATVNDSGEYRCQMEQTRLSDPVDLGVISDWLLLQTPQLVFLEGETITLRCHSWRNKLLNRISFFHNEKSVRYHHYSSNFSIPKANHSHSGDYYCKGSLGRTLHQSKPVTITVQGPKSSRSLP

T4: human FcγRIIb receptor protein (R&D Systems) (human, UniProt P31994 46-217)
T4 construct: Bought protein injected over captured antibody in Biacore; also called CD32b
T4 sequence (looked up): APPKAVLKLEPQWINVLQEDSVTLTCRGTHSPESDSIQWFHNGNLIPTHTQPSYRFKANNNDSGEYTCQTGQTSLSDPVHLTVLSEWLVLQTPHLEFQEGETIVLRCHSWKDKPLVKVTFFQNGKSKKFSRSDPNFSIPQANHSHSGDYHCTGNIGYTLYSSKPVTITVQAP

T5: human FcγRIIa (131R), His- and GST-tagged (human, UniProt P12318 34-217)
T5 construct: Expressed in HEK293T cells, purified by nickel chromatography; also called R131 FcγRIIa; not shown: 6xHis and GST tags of the pTT5 vector
T5 sequence (looked up): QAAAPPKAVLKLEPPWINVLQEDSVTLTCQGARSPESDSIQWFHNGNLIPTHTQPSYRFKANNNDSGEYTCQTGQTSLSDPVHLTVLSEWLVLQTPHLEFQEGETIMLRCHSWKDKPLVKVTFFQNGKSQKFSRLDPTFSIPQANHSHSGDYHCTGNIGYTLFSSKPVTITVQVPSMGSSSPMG

T6: human FcγRIIa (131H), His- and GST-tagged (human, UniProt P12318 34-217)
T6 construct: also called H131 FcγRIIa; HIIa; not shown: 6xHis and GST tags of the pTT5 vector
T6 sequence (looked up): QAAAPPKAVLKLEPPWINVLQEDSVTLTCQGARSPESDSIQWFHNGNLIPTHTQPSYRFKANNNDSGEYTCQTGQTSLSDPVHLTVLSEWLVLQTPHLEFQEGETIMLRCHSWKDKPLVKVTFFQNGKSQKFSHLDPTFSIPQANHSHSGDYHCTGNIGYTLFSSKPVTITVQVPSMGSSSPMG


What was measured:
[1] = biological target: T1, mFcγRIV; experiment: SPR, off-rate
Protocol: (§1) Variants were screened for receptor affinity using Biacore™ technology, also referred to as Biacore herein, a surface plasmon resonance (SPR) based technology for studying biomolecular interactions in real time. SPR measurements were performed using a Biacore 3000 instrument (Biacore, Piscataway, N.J.). A protein A/G (Pierce Biotechnology) CM5 biosensor chip (Biacore) was generated using a standard primary amine coupling protocol. All measurements were performed using HBS-EP buffer (10 mM HEPES pH 7.4, 0.15 M NaCl, 3 mM EDTA, 0.005% vol/vol surfactant P20, Biacore). Antibodies at 20 nM or 50 nM in HBS-EP buffer were immobilized on the protein A/G surface and FcγRs were injected. After each cycle, the surface was regenerated by injecting glycine buffer (10 mM, pH 1.5). Data were processed by zeroing time and response before the injection of FcγR and by subtracting appropriate nonspecific signals (response of reference channel and injection of running buffer). Kinetic analyses were performed by global fitting of binding data with a 1:1 Langmuir binding model using BIAevaluation software (Biacore).
(§2) Variant antibodies were tested for their affinity to mouse or cynologous monkey FcγRs using Biacore SPR as described above. Specifically, antibodies were first immobilized on a protein A/G chip to high density, and then followed by injections of the extracellular domain of the mouse or cynologous monkey FcγR of interest. Both association and dissociation phases were tracked in real time using the Biacore technology.

[2] = biological target: T7, cynoFcγRIIIa (Macaca fascicularis, UniProt Q8SPW2); experiment: SPR
T7 construct: extracellular region, C-terminal His- and GST-tag; also called cynomolgus monkey FcγRIIIa
T7 sequence (Q8SPW2 17-208): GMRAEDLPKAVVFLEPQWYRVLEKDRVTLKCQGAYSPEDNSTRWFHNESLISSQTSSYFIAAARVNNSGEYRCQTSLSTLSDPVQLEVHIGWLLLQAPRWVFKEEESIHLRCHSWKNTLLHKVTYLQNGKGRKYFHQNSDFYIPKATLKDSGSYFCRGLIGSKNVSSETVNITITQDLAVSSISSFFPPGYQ

[3] = biological target: T2, cynoFcγRIIb; experiment: SPR
[4] = biological target: T3, mFcγRIIb; experiment: SPR
[5] = biological target: T4, human FcγRIIb receptor protein (R&D …); experiment: SPR
[6] = biological target: T5, human FcγRIIa (131R), His- and …; experiment: SPR
[7] = biological target: T8, human FcγRI receptor protein (R&D Systems) (human, UniProt P12314 16-288); experiment: SPR
T8 construct: also called soluble FcγRI; solFcγRI
T8 sequence (P12314 16-288 limits assumed): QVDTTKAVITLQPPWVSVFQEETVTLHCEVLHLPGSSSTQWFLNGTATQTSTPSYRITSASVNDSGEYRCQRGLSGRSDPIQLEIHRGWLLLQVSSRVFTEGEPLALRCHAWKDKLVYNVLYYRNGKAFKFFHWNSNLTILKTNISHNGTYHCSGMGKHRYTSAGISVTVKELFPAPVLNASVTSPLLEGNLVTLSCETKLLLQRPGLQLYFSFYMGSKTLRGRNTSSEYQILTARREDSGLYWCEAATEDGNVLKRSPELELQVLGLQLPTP

[8] = biological target: T9, human FcγRIIIa (158V), His- and GST-tagged (human, UniProt P08637 17-208); experiment: SPR
T9 construct: also called V158 FcγRIIIa; VIIIa; not shown: 6xHis and GST tags of the pTT5 vector
T9 sequence (P08637 17-208 F176V): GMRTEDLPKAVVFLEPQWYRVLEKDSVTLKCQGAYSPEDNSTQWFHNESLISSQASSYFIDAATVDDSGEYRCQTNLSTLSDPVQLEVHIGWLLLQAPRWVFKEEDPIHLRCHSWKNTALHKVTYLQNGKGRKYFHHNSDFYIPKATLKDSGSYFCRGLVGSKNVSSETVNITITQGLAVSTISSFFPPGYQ

[9] = biological target: T2, cynoFcγRIIb; experiment: SPR, off-rate
Protocol: as §1, §2

[10] = biological target: T3, mFcγRIIb; experiment: SPR, off-rate
Protocol: as §1, §2

[11] = biological target: T1, mFcγRIV; experiment: SPR
[12] = biological target: T6, human FcγRIIa (131H), His- and …; experiment: SPR
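Wherever Fold vs WT IgG1 (off-rate) is given: fold improvement over WT IgG1 so higher means slower dissociation than WT.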

binding result [1]	Fold vs WT IgG1 (off-rate) [2] [fold]	Fold vs WT IgG1 (off-rate) [3] [fold]	Fold vs WT IgG1 (off-rate) [4] [fold]	Fold vs WT IgG1 [5] [fold]	Kd [5] [nM]	Fold vs WT IgG1 [6] [fold]	Kd [6] [nM]	Fold vs WT IgG1 [7] [fold]	Kd [7] [nM]	Fold vs WT IgG1 [8] [fold]	Kd [8] [nM]	binding result [9]	binding result [10]	Fold vs WT IgG1 (off-rate) [11] [fold]	Fold vs WT IgG1 [12] [fold]	Kd [12] [nM]	binding result [5]	binding result [6]	Binder
no binding	0.116	0.495	1.04	21.7	67.8	12.7	67.7	0.0286	11.5	0.14	1370	–	–	–	–	–	–	–	L234D/S267E (antibody, human IgG1, kappa, HuAM4G7 anti-CD19 IgG1 (m1) with these Fc substitutions, EU index; copies: 2 + 2) heavy: not shown light: DIVMTQSPATLSLSPGERATLSCRSSKSLQNVNGNTYLYWFQQKPGQSPQLLIYRMSNLNSGVPDRFSGSGSGTEFTLTISSLEPEDFAVYYCMQHLEYPITFGAGTKLEIKRTVAAPSVFIFPPSDEQLKSGTASVVCLLNNFYPREAKVQWKVDNALQSGNSQESVTEQDSKDSTYSLSSTLTLSKADYEKHKVYACEVTHQGLSSPVTKSFNRGEC
–	0.223	–	–	0.011	134000	0.634	1350	–	–	–	–	no binding	no binding	0.361	–	–	–	–	A327Q (antibody, human IgG1, kappa, HuAM4G7 anti-CD19 IgG1 (m1) with this Fc substitution, EU index; copies: 2 + 2) heavy: not shown light: DIVMTQSPATLSLSPGERATLSCRSSKSLQNVNGNTYLYWFQQKPGQSPQLLIYRMSNLNSGVPDRFSGSGSGTEFTLTISSLEPEDFAVYYCMQHLEYPITFGAGTKLEIKRTVAAPSVFIFPPSDEQLKSGTASVVCLLNNFYPREAKVQWKVDNALQSGNSQESVTEQDSKDSTYSLSSTLTLSKADYEKHKVYACEVTHQGLSSPVTKSFNRGEC
–	0.367	–	–	0.55	2670	0.333	2580	–	–	–	–	no binding	no binding	0.857	–	–	–	–	L235E (antibody, human IgG1, kappa, HuAM4G7 anti-CD19 IgG1 (m1) with this Fc substitution, EU index; copies: 2 + 2) heavy: not shown light: DIVMTQSPATLSLSPGERATLSCRSSKSLQNVNGNTYLYWFQQKPGQSPQLLIYRMSNLNSGVPDRFSGSGSGTEFTLTISSLEPEDFAVYYCMQHLEYPITFGAGTKLEIKRTVAAPSVFIFPPSDEQLKSGTASVVCLLNNFYPREAKVQWKVDNALQSGNSQESVTEQDSKDSTYSLSSTLTLSKADYEKHKVYACEVTHQGLSSPVTKSFNRGEC
–	0.309	–	–	0.797	1840	1.45	592	–	–	–	–	no binding	no binding	0.618	–	–	–	–	S298D (antibody, human IgG1, kappa, HuAM4G7 anti-CD19 IgG1 (m1) with this Fc substitution, EU index; copies: 2 + 2) heavy: not shown light: DIVMTQSPATLSLSPGERATLSCRSSKSLQNVNGNTYLYWFQQKPGQSPQLLIYRMSNLNSGVPDRFSGSGSGTEFTLTISSLEPEDFAVYYCMQHLEYPITFGAGTKLEIKRTVAAPSVFIFPPSDEQLKSGTASVVCLLNNFYPREAKVQWKVDNALQSGNSQESVTEQDSKDSTYSLSSTLTLSKADYEKHKVYACEVTHQGLSSPVTKSFNRGEC
–	0.351	–	–	0.147	10000	0.0356	24100	–	–	–	–	no binding	no binding	0.241	–	–	–	–	L235N (antibody, human IgG1, kappa, HuAM4G7 anti-CD19 IgG1 (m1) with this Fc substitution, EU index; copies: 2 + 2) heavy: not shown light: DIVMTQSPATLSLSPGERATLSCRSSKSLQNVNGNTYLYWFQQKPGQSPQLLIYRMSNLNSGVPDRFSGSGSGTEFTLTISSLEPEDFAVYYCMQHLEYPITFGAGTKLEIKRTVAAPSVFIFPPSDEQLKSGTASVVCLLNNFYPREAKVQWKVDNALQSGNSQESVTEQDSKDSTYSLSSTLTLSKADYEKHKVYACEVTHQGLSSPVTKSFNRGEC
–	0.53	–	–	0.351	4180	0.166	5180	0.0179	18.4	0.314	609	no binding	no binding	0.496	0.0486	13300	–	–	L235A (antibody, human IgG1, kappa, HuAM4G7 anti-CD19 IgG1 (m1) with this Fc substitution, EU index; copies: 2 + 2) heavy: not shown light: DIVMTQSPATLSLSPGERATLSCRSSKSLQNVNGNTYLYWFQQKPGQSPQLLIYRMSNLNSGVPDRFSGSGSGTEFTLTISSLEPEDFAVYYCMQHLEYPITFGAGTKLEIKRTVAAPSVFIFPPSDEQLKSGTASVVCLLNNFYPREAKVQWKVDNALQSGNSQESVTEQDSKDSTYSLSSTLTLSKADYEKHKVYACEVTHQGLSSPVTKSFNRGEC
–	0.371	–	–	–	–	–	–	–	–	–	–	no binding	no binding	0.2	–	–	no binding	no binding	L234N (antibody, human IgG1, kappa, HuAM4G7 anti-CD19 IgG1 (m1) with this Fc substitution, EU index; copies: 2 + 2) heavy: not shown light: DIVMTQSPATLSLSPGERATLSCRSSKSLQNVNGNTYLYWFQQKPGQSPQLLIYRMSNLNSGVPDRFSGSGSGTEFTLTISSLEPEDFAVYYCMQHLEYPITFGAGTKLEIKRTVAAPSVFIFPPSDEQLKSGTASVVCLLNNFYPREAKVQWKVDNALQSGNSQESVTEQDSKDSTYSLSSTLTLSKADYEKHKVYACEVTHQGLSSPVTKSFNRGEC
–	0.046	–	–	–	–	–	–	–	–	–	–	no binding	no binding	0.136	–	–	no binding	no binding	S298E (antibody, human IgG1, kappa, HuAM4G7 anti-CD19 IgG1 (m1) with this Fc substitution, EU index; copies: 2 + 2) heavy: not shown light: DIVMTQSPATLSLSPGERATLSCRSSKSLQNVNGNTYLYWFQQKPGQSPQLLIYRMSNLNSGVPDRFSGSGSGTEFTLTISSLEPEDFAVYYCMQHLEYPITFGAGTKLEIKRTVAAPSVFIFPPSDEQLKSGTASVVCLLNNFYPREAKVQWKVDNALQSGNSQESVTEQDSKDSTYSLSSTLTLSKADYEKHKVYACEVTHQGLSSPVTKSFNRGEC
